Consider one substance from patent US8466107B2, “Fibrin-binding peptides and conjugates thereof” (Bracco Imaging SpA, priority 2006, dated 2013).

The assay concerns the target T1, human clots (Homo sapiens, UniProt P02671+P02675+P02679).
T1 construct: Small plasma clots from different species (human, guinea pig and mouse); tissue Dade Behring; host or cells: pooled human plasma (Control Plasma N), clotted with Pathromtin SL and CaCl2
T1 sequence (P02671 36-629 limits assumed): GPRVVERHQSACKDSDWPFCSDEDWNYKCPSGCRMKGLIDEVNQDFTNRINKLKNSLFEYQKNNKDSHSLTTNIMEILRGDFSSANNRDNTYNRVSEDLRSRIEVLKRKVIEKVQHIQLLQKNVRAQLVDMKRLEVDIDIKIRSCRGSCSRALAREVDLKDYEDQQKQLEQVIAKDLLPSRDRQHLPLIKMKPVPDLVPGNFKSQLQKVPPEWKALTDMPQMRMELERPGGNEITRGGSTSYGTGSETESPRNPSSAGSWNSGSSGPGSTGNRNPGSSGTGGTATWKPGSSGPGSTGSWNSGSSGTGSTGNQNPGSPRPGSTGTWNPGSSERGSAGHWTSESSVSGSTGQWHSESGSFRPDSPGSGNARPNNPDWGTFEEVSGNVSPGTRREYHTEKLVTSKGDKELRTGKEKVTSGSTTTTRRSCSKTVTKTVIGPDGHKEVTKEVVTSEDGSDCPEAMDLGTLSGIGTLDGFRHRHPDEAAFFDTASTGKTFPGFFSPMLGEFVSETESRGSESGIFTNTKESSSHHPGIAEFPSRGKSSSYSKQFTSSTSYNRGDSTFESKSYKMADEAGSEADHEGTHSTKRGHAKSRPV
T1 sequence (P02675 45-491 limits assumed): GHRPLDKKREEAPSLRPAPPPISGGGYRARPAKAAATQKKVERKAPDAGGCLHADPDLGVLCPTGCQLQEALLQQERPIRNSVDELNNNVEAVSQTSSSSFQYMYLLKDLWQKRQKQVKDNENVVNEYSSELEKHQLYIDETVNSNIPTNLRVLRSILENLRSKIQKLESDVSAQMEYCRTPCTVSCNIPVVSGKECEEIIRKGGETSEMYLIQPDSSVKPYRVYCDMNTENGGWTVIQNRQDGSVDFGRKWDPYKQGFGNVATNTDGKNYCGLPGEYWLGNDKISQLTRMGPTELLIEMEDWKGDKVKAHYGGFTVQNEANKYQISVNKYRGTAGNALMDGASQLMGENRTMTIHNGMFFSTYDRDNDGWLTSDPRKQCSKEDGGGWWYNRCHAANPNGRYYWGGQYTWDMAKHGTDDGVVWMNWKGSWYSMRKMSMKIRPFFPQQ
T1 sequence (P02679 27-437 isoform P02679-2 limits assumed): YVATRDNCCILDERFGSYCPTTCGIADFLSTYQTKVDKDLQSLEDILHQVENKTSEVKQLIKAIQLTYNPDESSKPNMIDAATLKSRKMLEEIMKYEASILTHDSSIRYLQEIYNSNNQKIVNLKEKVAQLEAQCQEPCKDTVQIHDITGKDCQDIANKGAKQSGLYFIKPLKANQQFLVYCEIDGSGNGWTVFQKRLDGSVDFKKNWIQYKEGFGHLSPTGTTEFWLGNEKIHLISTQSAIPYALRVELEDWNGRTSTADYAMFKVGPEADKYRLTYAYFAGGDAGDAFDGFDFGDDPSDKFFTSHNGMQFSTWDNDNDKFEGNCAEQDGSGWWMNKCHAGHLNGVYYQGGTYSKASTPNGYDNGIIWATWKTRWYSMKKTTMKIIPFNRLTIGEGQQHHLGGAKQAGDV
The assay can be described thus: In vitro MRI test of signal enhancement in plasma clots incubated with contrast agents. In kind it is binding. As to the method:
Small plasma clots from different species (human, guinea pig and mouse) ranging from 0.5-7 mm in diameter were formed by combining citrate plasma (1:3,v/v) phospholipids (Reagent Pathromtin) and CaCl2 0.008 M (Dade Behring, Germany) into small 2 ml vials at 37° C. Clots were washed 3 times with TBS 1× and incubated with contrast agents at 100 μM for 30 minutes at 37° C. Two clots were prepared for each solution of incubation. After the incubation clots were washed 4 times with TBS 1× and placed into small vials filled with TBS 1× for MRI analysis. T1-weighted 2D Spin-Echo (SE) images were acquired with the following parameters: TR/TE=400/8 ms, spatial resolution=344 μm and slice thickness=2 mm. Maximum signal intensity was measured in each image containing clot and compared to the signal from a clots incubated in TBS. […]
This protocol has been developed and used to test the specificity and efficiency of the fibrin targeted contrast agents of the invention for sensitive detection of thrombus by use of MRI. […] Signal enhancement from each sample incubated with the fibrin targeted contrast agent was evaluated and compared to a standard contrast agent ProHance®. […]
High resolution MRI was then performed by using T1-weighted Spin-Echo (SE) sequences. T1 maps were also calculated from the acquisition of 2D gradient echo images or inversion recovery spin echo images. […]

Bridge positions count the residues as written; N and C are the ends.

For the substance “Chelated Complex 1: Gd chelated complex (four DTPA-Glu units on branched lysine linker) conjugated to the fibrin-binding peptide; MRI contrast agent (Ac-WQPCPAESWTFCWDPGGGK-NH2; disulfide 4-12; not fully specified (some residues); also: further groups not given here)”, for the setting “human clots incubated with 100 μM complex, 30 minutes at 37° C., T1-weighted spin-echo MRI at 2T”, the “Max signal Enhancement at 100 μM” value was 100%. For the same substance, the “signal enhancement in clots, ranking of tested compounds” value (human clots, 100 μM concentration) is listed as “maximum signal enhancement”.
